27 sequences from the supplement of paper PMC9732359 can be followed below.

± gives the uncertainty stated by the source.

The data set in a line: protein stability index of a GFP-peptide fusion (yeast GPS) (PSI 1-4); higher = more stable; sorted into four equal gates, so the index is relative within each strain. In outline:
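Tiled yeast protein peptides of 17 residues were each joined downstream of GFP, on plasmids that also express Cherry. The pooled library was maintained in yeast, and mid-log cultures in leucine-free medium were sorted into four equal gates on the GFP/Cherry ratio. Plasmids from every gate were amplified by PCR and sequenced on Illumina, with barcodes linking reads to strains. The protein stability index of a peptide is its gate-number-weighted read frequency summed over the gates.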

Take SNIELAFSSVEHIIRDV [COB]: the protein stability index by setting is: (doa10∆) 3 ± 0.087; (pdr5∆) 2.78 ± 0.1; (san1∆) 2.79 ± 0.079; (ubr1∆) 2.73 ± 0.11.
MEKKKSSSLSLESFMKS [SNM1]: the protein stability index is 1.84 ± 0.04 (doa10∆), 1.91 ± 0.045 (pdr5∆), 2.62 ± 0.06 (san1∆) and 2.04 ± 0.04 (ubr1∆).
For FNRENKVSPADAAKKAL [RPS26A] the same measures were 3.42 ± 0.13, 3.01 ± 0.14, 3.17 ± 0.048 and 3.4 ± 0.073.
For GTLLREDDNTPAGHAGN [YDL088C/ASM4] the same measures were 3.03 ± 0.084, 2.79 ± 0.086, 3.09 ± 0.054 and 3 ± 0.045.
For PCLRKYEEFRDVAIENN [RRP43], in that order: 2.73 ± 0.064, 2.82 ± 0.065, 2.9 ± 0.041 and 2.94 ± 0.047.
As to YLLASLKDSKDFDESLK [RPN9], the protein stability index reads like this: (doa10∆) 2.69 ± 0.083; (pdr5∆) 2.82 ± 0.088; (san1∆) 2.82 ± 0.099; (ubr1∆) 2.52 ± 0.084.
YLNDLMITKRILEVGAL [RPN12]: under “doa10∆”, the protein stability index amounted to 1.29 ± 0.16.
As for LDKLNCAINSKSRGSDL [RRP6], the protein stability index is, setting by setting: (doa10∆) 2.81 ± 0.049; (pdr5∆) 2.93 ± 0.042; (san1∆) 2.79 ± 0.042; (ubr1∆) 2.94 ± 0.032.
For CAFLLTKIKDAEEDSLL [YJL039C/NUP192], in that order: 3.22 ± 0.11, 3.4 ± 0.071, 3.08 ± 0.11 and 3.35 ± 0.1.
On to LVRYGLAEKVEKASRQQ [RPS24A], for which the protein stability index came to 3.33 ± 0.11 (pdr5∆), 3.38 ± 0.098 (san1∆) and 3.19 ± 0.19 (ubr1∆).
On to DVPAYNVTSFMPFWKFF [SRB8], for which the protein stability index amounted to 1.62 ± 0.037 (doa10∆), 1.68 ± 0.04 (pdr5∆), 1.5 ± 0.06 (san1∆) and 1.56 ± 0.031 (ubr1∆).
For TPSNIRSLCEVLVYDDK [RPC34], in that order: 1.7 ± 0.077, 1.84 ± 0.078, 1.26 ± 0.11 and 1.59 ± 0.086.
For KHDSLRYRLLSDVSDFE [RPN1], in that order: 2.7 ± 0.09, 3.04 ± 0.1, 2.75 ± 0.089 and 2.66 ± 0.098.
The sequence LSESPVDFEKFETFLVD [SIN4] displayed a protein stability index (doa10∆) of 3.03 ± 0.12, a protein stability index (pdr5∆) of 2.73 ± 0.21 and a protein stability index (ubr1∆) of 2.76 ± 0.21.
Take GALDVEGLCIVAGSKCW [RRP45]: the protein stability index amounted to 2.83 ± 0.12 (doa10∆), 2.96 ± 0.11 (pdr5∆), 2.87 ± 0.077 (san1∆) and 2.9 ± 0.13 (ubr1∆).
As to KQVLLRLNPYAKVFAAE [RPL4A], the protein stability index by setting is: (doa10∆) 2.12 ± 0.067; (pdr5∆) 2.6 ± 0.11; (ubr1∆) 2.42 ± 0.074.
As for SLDEILLPANLLSLNSV [SRP68], the protein stability index is, setting by setting: (doa10∆) 3.13 ± 0.058; (pdr5∆) 3.15 ± 0.058; (san1∆) 3.14 ± 0.05; (ubr1∆) 3.08 ± 0.031.
As to RPGRIDRKIEFPPPSVA [RPT6], the protein stability index stood at 3.21 ± 0.072 (doa10∆), 3.26 ± 0.07 (pdr5∆), 3.05 ± 0.054 (san1∆) and 3.25 ± 0.048 (ubr1∆).
For VNRSVVVSAVGEARNDI [YAR002W/NUP60] the same measures were 2.62 ± 0.044, 2.57 ± 0.051, 2.83 ± 0.041 and 2.2 ± 0.037.
For LFQRQKLHEFYLLISKE [IRR1] the same measures were 2.69 ± 0.12, 2.97 ± 0.076, 2.63 ± 0.061 and 2.87 ± 0.12.
For ESILQMNQGEGEPEAGN [RPC34], in that order: 3 ± 0.2, 3.18 ± 0.093, 3.46 ± 0.26 and 3 ± 0.13.
On to DNPLRQIPHFNNKILEK [BRR2], for which the protein stability index runs as follows: (doa10∆) 3.08 ± 0.092; (pdr5∆) 3.1 ± 0.084; (san1∆) 3.08 ± 0.086; (ubr1∆) 3.19 ± 0.08.
SRSTDNFHNSKKRMNSN [RRI1] registered a protein stability index (doa10∆) of 2.11 ± 0.06, a protein stability index (pdr5∆) of 2.4 ± 0.081, a protein stability index (san1∆) of 2.26 ± 0.1 and a protein stability index (ubr1∆) of 2.61 ± 0.081.
For RYSMSEQFPFYLHDNAS [IRR1], in that order: 3.02 ± 0.09, 3.01 ± 0.06, 2.97 ± 0.063 and 3.03 ± 0.042.
For CTKLAVYYSKRGFKVGL [SRP54] the same measures were 2.57 ± 0.14, 2.73 ± 0.13, 2.23 ± 0.099 and 2.54 ± 0.06.
As for AKSDETKQASSFSFLNR [YLR335W/NUP2], the protein stability index stood at 3.35 ± 0.069 (doa10∆), 3.39 ± 0.099 (pdr5∆), 3.26 ± 0.044 (san1∆) and 3.31 ± 0.05 (ubr1∆).
As to TSQMDLARDTPSANNSS [RRP4], the protein stability index is, setting by setting: (doa10∆) 1.86 ± 0.042; (pdr5∆) 1.46 ± 0.064; (san1∆) 1.91 ± 0.077; (ubr1∆) 1.51 ± 0.045.
